The labels stand for the following.
B1: FUT8 (parent)
chain: YAHQPRTADEIPMEPGDIIGVAGN

Drawing on the supplement of paper PMC10567573, this text covers protein stability index for 94 variants.
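Also: lentivirally expressed fusions sorted by FACS into six bins by GFP to DsRed ratio, PSI derived from sequencing read proportions per bin multiplied by bin number.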

The data set covers variants of B1. In words: protein stability index of a GFP-peptide fusion (GPS, HEK-293T) (PSI 1-6); higher = more stable. As to conditions: c terminus: a fixed tail appended.
With YAHQPRTAMEIPMEPGDIIGVAGN [D9M], the protein stability index is 3.74. On to YAHQPRTADEIPMEDGDIIGVAGN [P15D], for which the protein stability index is 4.32. For the variant YAHQPRTADEIPMEEGDIIGVAGN [P15E], the protein stability index was found to be 4.57.

On to YAHQPRTADEIPMEFGDIIGVAGN [P15F], for which the protein stability index amounted to 3.52. Turning to YAHQPRTADEIPMECGDIIGVAGN [P15C], the protein stability index is 3.58. Take YAHQPRTADEIPMEHGDIIGVAGN [P15H]: the protein stability index amounted to 3.86. For the variant YAHQPRTADEIPMEAGDIIGVAGN [P15A], the protein stability index came out at 4.38.

With YAHQPRTADEIPMEGGDIIGVAGN [P15G], the protein stability index was determined as 4.16.

On to YAHQPRTIDEIPMEPGDIIGVAGN [A8I], for which the protein stability index came out at 4.02. With YAHQPRTFDEIPMEPGDIIGVAGN [A8F], the protein stability index was 3.48.

For YAHQPRTKDEIPMEPGDIIGVAGN [A8K], the protein stability index worked out at 3.88. As for YAHQPRTMDEIPMEPGDIIGVAGN [A8M], the protein stability index was determined as 3.74.

With YAHQPRTNDEIPMEPGDIIGVAGN [A8N], the protein stability index is 4.22. On to YAHQPRTGDEIPMEPGDIIGVAGN [A8G], for which the protein stability index was found to be 4.19.

As for YAHQPRTSDEIPMEPGDIIGVAGN [A8S], the protein stability index was found to be 3.87.

YAHQPRTEDEIPMEPGDIIGVAGN [A8E]: the protein stability index came out at 4.4.

Take YAHQPRTVDEIPMEPGDIIGVAGN [A8V]: the protein stability index is 3.77. Turning to YAHQPRTTDEIPMEPGDIIGVAGN [A8T], the protein stability index stood at 4.24. On to YAHQPRTYDEIPMEPGDIIGVAGN [A8Y], for which the protein stability index turned out to be 3.15. As to YAHQPRTPDEIPMEPGDIIGVAGN [A8P], the protein stability index was 4.32. As for YAHQPRTLDEIPMEPGDIIGVAGN [A8L], the figure is 3.43; as for YAHQPRTRDEIPMEPGDIIGVAGN [A8R], 3.89; as for YAHQPRTDDEIPMEPGDIIGVAGN [A8D], 4.49. For the variant YAHQPRTHDEIPMEPGDIIGVAGN [A8H], the protein stability index is 3.87.

As to YAHQPRTCDEIPMEPGDIIGVAGN [A8C], the protein stability index was 3.44. Turning to YAHQPRTQDEIPMEPGDIIGVAGN [A8Q], the protein stability index came out at 4.25. As to YAHQPRTWDEIPMEPGDIIGVAGN [A8W], the protein stability index is 2.78. For YAHQPRQADEIPMEPGDIIGVAGN [T7Q] the value was 4.25; for YAHQPRIADEIPMEPGDIIGVAGN [T7I], 3.66; for YAHQPRGADEIPMEPGDIIGVAGN [T7G], 4.18. As for YAHQPRSADEIPMEPGDIIGVAGN [T7S], the protein stability index worked out at 4.12. YAHQPRAADEIPMEPGDIIGVAGN [T7A]: the protein stability index turned out to be 4.18. Consider YAHQPRVADEIPMEPGDIIGVAGN [T7V], for which the protein stability index turned out to be 3.89.

For YAHQPRCADEIPMEPGDIIGVAGN [T7C], the protein stability index worked out at 2.73.

With YAHQPRPADEIPMEPGDIIGVAGN [T7P], the protein stability index came out at 3.97. Regarding YAHQPRKADEIPMEPGDIIGVAGN [T7K], the protein stability index was found to be 3.56. Regarding YAHQPRRADEIPMEPGDIIGVAGN [T7R], the protein stability index came to 3.9. On to YAHQPRHADEIPMEPGDIIGVAGN [T7H], for which the protein stability index came to 3.66. In the case of YAHQPRDADEIPMEPGDIIGVAGN [T7D], the protein stability index worked out at 4.62. For the variant YAHQPRWADEIPMEPGDIIGVAGN [T7W], the protein stability index is 2.46. Consider YAHQPRFADEIPMEPGDIIGVAGN [T7F], for which the protein stability index was determined as 2.37. As for YAHQPREADEIPMEPGDIIGVAGN [T7E], the figure is 4.84.

On to YAHQPRYADEIPMEPGDIIGVAGN [T7Y], for which the protein stability index stood at 3.58. As to YAHQPRMADEIPMEPGDIIGVAGN [T7M], the protein stability index turned out to be 3.68. As to YAHQPRLADEIPMEPGDIIGVAGN [T7L], the protein stability index came out at 3.71. In the case of YAHQPRNADEIPMEPGDIIGVAGN [T7N], the protein stability index is 4.51. For YAHQPRTADEGPMEPGDIIGVAGN [I11G], the protein stability index was 3.98.

As to YAHQPRTADEVPMEPGDIIGVAGN [I11V], the protein stability index came out at 4.55.

Regarding YAHQPRTADEFPMEPGDIIGVAGN [I11F], the protein stability index worked out at 3.71. Take YAHQPRTADESPMEPGDIIGVAGN [I11S]: the protein stability index was 4.09. Take YAHQPRTADEPPMEPGDIIGVAGN [I11P]: the protein stability index came out at 4.12. For YAHQPRTADEDPMEPGDIIGVAGN [I11D], the protein stability index is 4.65. Consider YAHQPRTADERPMEPGDIIGVAGN [I11R], for which the protein stability index amounted to 4.07. As for YAHQPRTADECPMEPGDIIGVAGN [I11C], the protein stability index worked out at 4.26.

On to YAHQPRTADEWPMEPGDIIGVAGN [I11W], for which the protein stability index was 3.44. As to YAHQPRTADEQPMEPGDIIGVAGN [I11Q], the protein stability index is 4.46. Take YAHQPRTADEHPMEPGDIIGVAGN [I11H]: the protein stability index came out at 4.06. As to YAHQPRTADENPMEPGDIIGVAGN [I11N], the protein stability index was 4.26.

For the variant YAHQPRTADEKPMEPGDIIGVAGN [I11K], the protein stability index came to 4.27. Turning to YAHQPRTADELPMEPGDIIGVAGN [I11L], the protein stability index came out at 3.47. As for YAHQPRTADEYPMEPGDIIGVAGN [I11Y], the figure is 3.93; as for YAHQPRTADETPMEPGDIIGVAGN [I11T], 4.2. Consider YAHQPRTADEMPMEPGDIIGVAGN [I11M], for which the protein stability index is 4.09. For the variant YAHQPRTADEAPMEPGDIIGVAGN [I11A], the protein stability index was found to be 4.44. Regarding YAHQPRTADEEPMEPGDIIGVAGN [I11E], the protein stability index is 4.37. YAHQQRTADEIPMEPGDIIGVAGN [P5Q]: the protein stability index is 4.12. For the variant YAHQRRTADEIPMEPGDIIGVAGN [P5R], the protein stability index was found to be 3.55. With YAHQVRTADEIPMEPGDIIGVAGN [P5V], the protein stability index is 3.92.

For YAHQLRTADEIPMEPGDIIGVAGN [P5L], the protein stability index is 3.75. In the case of YAHQNRTADEIPMEPGDIIGVAGN [P5N], the protein stability index stood at 4.33. For YAHQWRTADEIPMEPGDIIGVAGN [P5W] the value was 1.88; for YAHQSRTADEIPMEPGDIIGVAGN [P5S], 3.85. Regarding YAHQYRTADEIPMEPGDIIGVAGN [P5Y], the protein stability index was 3.48.

On to YAHQTRTADEIPMEPGDIIGVAGN [P5T], for which the protein stability index is 4.31. Regarding YAHQMRTADEIPMEPGDIIGVAGN [P5M], the protein stability index amounted to 3.53. For the variant YAHQPRTADGIPMEPGDIIGVAGN [E10G], the protein stability index was found to be 2.53.

For the variant YAHQPRTADDIPMEPGDIIGVAGN [E10D], the protein stability index worked out at 4.18. With YAHQPRTADQIPMEPGDIIGVAGN [E10Q], the protein stability index was found to be 3.08.

Take YAHQPRTADLIPMEPGDIIGVAGN [E10L]: the protein stability index was 3.56.

Take YAHQPRTADCIPMEPGDIIGVAGN [E10C]: the protein stability index was 3.25.

On to YAHQPRTADIIPMEPGDIIGVAGN [E10I], for which the protein stability index is 2.99. In the case of YAHQPRTADMIPMEPGDIIGVAGN [E10M], the protein stability index worked out at 3.44. For YAHQPRTADRIPMEPGDIIGVAGN [E10R], the protein stability index amounted to 2.96. Turning to YAHQPRTADFIPMEPGDIIGVAGN [E10F], the protein stability index was found to be 3.14. On to YAHQPRTADAIPMEPGDIIGVAGN [E10A], for which the protein stability index was 3.67.

With YAHQPRTADTIPMEPGDIIGVAGN [E10T], the protein stability index was 3.66.

Regarding YAHQPRTADYIPMEPGDIIGVAGN [E10Y], the protein stability index came out at 3.06. As for YAHQPRTADSIPMEPGDIIGVAGN [E10S], the figure is 3.74; as for YAHQPRTADKIPMEPGDIIGVAGN [E10K], 2.9; as for YAHQPRTADWIPMEPGDIIGVAGN [E10W], 2.23.

As to YAHQPRTADNIPMEPGDIIGVAGN [E10N], the protein stability index came to 3.73.

Consider YAHQPRTADPIPMEPGDIIGVAGN [E10P], for which the protein stability index was 3.66. As for YAHQPRTADVIPMEPGDIIGVAGN [E10V], the figure is 3.37; as for YAHQPRTADHIPMEPGDIIGVAGN [E10H], 3.33.
